According to the supplement of paper PMC10567573:

B1: CPN1 (parent)
chain: RGVRRTASTPTPDDKLFQKLAKVY

Variants of: B1
Experiment: protein stability index of a GFP-peptide fusion (GPS, HEK-293T) (PSI 1-6); higher = more stable
Conditions: c terminus: a fixed tail appended
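Further: lentivirally expressed fusions sorted by FACS into six bins by GFP to DsRed ratio, PSI derived from sequencing read proportions per bin multiplied by bin number.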

Protein stability index, by site and new letter:
L16: Y 1.92; V 2.29; K 3.56; F 1.9; C 2.52; S 2.95; N 3.32; W 1.85; H 2.64; G 3.29; T 3.43; I 2.61; Q 3.31; A 2.65; M 2.65; P 3.29; D 4.21; E 2.68; R 3.34
A21: N 2.66; Y 2.27; R 1.83; G 3.23; K 1.76; P 2.62; V 1.6; S 2.15; L 1.58; T 1.78; Q 2.48; D 2.78; W 2.22; H 2.29; C 2.22; I 1.85; M 1.73; F 1.64; E 3.11
V23: E 3.84; T 2.4; R 3.84; N 3.73; G 3.09; L 2.18; D 3.02; W 1.92; I 2.27; K 2.96; M 1.9; F 1.64; S 2.7; P 3.51; Y 1.9; H 2.78; C 2.58; Q 3.44; A 2.45
K15: S 2.02; G 2; R 1.78; I 1.76; W 1.93; Y 1.63; E 2.2; N 1.7; H 1.75; T 1.7; F 3.23; P 2.12; C 1.95; A 1.58; L 1.8; D 1.99; M 1.33; Q 2.08
Q18: E 2.19; P 2.7; M 1.47; G 2.29; C 2.6; N 1.8; I 1.75; H 2.02; Y 1.78; F 1.43; R 1.77; S 2.09; V 1.82; T 2.42; D 2.32; K 1.84; L 1.69; A 1.93; W 1.37
K22: A 2.19; C 1.8; I 1.45; H 1.98; F 1.96; L 2.73; N 2.4; M 2.04; D 1.95; Y 1.97; V 2.14; S 1.93; P 2.37; R 2.07; G 2.82; Q 1.7; T 1.96; E 1.87; W 2.19
K19: R 2.49; G 2.21; Y 1.34; A 1.62; S 1.74; T 1.98; Q 1.96; N 2.16; F 2.53; P 2.93; L 2.36; H 2.12; E 2.54; V 2.1; D 2.67; W 2.21
F17: L 2.15; Y 2.28; R 3.43; T 3.67; H 2.63; C 2.96; Q 3.21; S 2.94; M 3; W 2.26; V 2.58; P 2.84; N 2.88; G 3.25; K 3.5; E 3.95; D 3.32; A 3.19; I 2.53
Y24: K 3.95; V 2.7; I 2.6; M 1.66; A 2.51; L 2.49; N 3.33; E 3.49; F 1.95; P 2.72; T 3.64; R 2.29; W 1.98; G 3; S 2.72; H 3.1; Q 2.92; D 3.48; C 2.22
